Measured values as given in patent publication US20210302429.

Tests used:
H1.0K180me2 peptide = system: T1, H1.0K180me2 peptide
T1 sequence: AKPVKASKPKKAKPVKPK

[1] = system: full length human H1.0 protein
unmodified H1.0 peptide = system: T2, unmodified H1.0 peptide
T2 sequence: AKPVKASKPKKAKPVKPK

For GLP methyltransferase, the “peptides further methylated, LC-MS” value (H1.0K180me2 peptide) was 1.02% of peptides are further methylated, the “sites of methylation, LC-MS” value [1] was “GLP methylates a large number of lysine residues on the C-terminal tail of H1.0, lacking the specificity of G9A” and the “peptides dimethylated at K180, LC-MS spectral counts” value (unmodified H1.0 peptide) was 96.6% of all peptides.

With G9A methyltransferase the “further methylated peptide H1.0K166me1K180me2, LC-MS” value (H1.0K180me2 peptide) was 1.27% of the total peptide in the reaction, the “further methylated peptide H1.0K174me1K180me3, LC-MS” value (H1.0K180me2 peptide) was 1.06% of the total peptide in the reaction and the “further methylated peptide H1.0K174me3K175me3K177me1K180me2, LC-MS” value (H1.0K180me2 peptide) was 0.35% of the total peptide in the reaction. For the same substance, the “peptides further methylated, LC-MS” value (H1.0K180me2 peptide) was “only 2.64% of peptides are further methylated”, the “in vitro methylation assay with increasing amounts of G9A” value [1] was “G9A is capable of dimethylating full length H1.0 at K180” and the “sites of methylation, LC-MS” value [1] was “G9A methylates C-terminal lysine residues, including H1.0K180me2”. The “estimated methylation efficiency, LC-MS” value (unmodified H1.0 peptide) was “an estimated methylation efficiency of about 99%”, the “in vitro methylation with tritium-labeled methyl donor, gel autoradiography” value (unmodified H1.0 peptide) was “The appearance of a band at 4 kDa shows that The G9A methyltransferase capable of methylating H1.0 peptide” and the “peptides dimethylated at K180, LC-MS spectral counts” value (unmodified H1.0 peptide) was 99.9% of all peptides.
